Assay results published in patent US20230324389.

B1: MMP7 (protein)
chain: YSLFPNSPKWTSKVVTYRIVSYTRDLPHITVDRLVSKALNMWGKEIPLHFRKVVWGTADIMIGFARGAHGDSYPFDGPGNTLAHAFAPGTGLGGDAHFDEDERWTDGSSLGINFLYAATHELGHSLGMGHSSDPNAVMYPTYGNGDPQNFKLSQDDIKGIQKLYGKRSNSRKK
B2: MMP2 (protein)
chain: YNFFPRKPKWDKNQITYRIIGYTPDLDPETVDDAFARAFQVWSDVTPLRFSRIHDGEADIMINFGRWEHGDGYPFDGKDGLLAHAFAPGTGVGGDSHFDDDELWTLGEGQVVRVKYGNADGEYCKFPFLFNGKEYNSCTDTGRSDGFLWCSTTYNFEKDGKYGFCPHEALFTMGGNAEGQPCKFPFRFQGTSYDSCTTEGRTDGYRWCGTTEDYDRDKKYGFCPETAMSTVGGNSEGAPCVFPFTFLGNKYESCTSAGRSDGKMWCATTANYDDDRKWGFCPDQGYSLFLVAAHEFGHAMGLEHSQDPGALMAPIYTYTKNFRLSQDDIKGIQELYGASPDIDLGTGPTPTLGPVTPEICKQDIVFDGIAQIRGEIFFFKDRFIWRTVTPRDKPMGPLLVATFWPELPEKIDAVYEAPQEEKAVFFAGNEYWIYSASTLERGYPKPLTSLGLPPDVQRVDAAFNWSKNKKTYIFAGDKFWRYNEVKKKMDPGFPKLIADAWNAIPDNLDAVVDLQGGGHSYFFKGAYYLKLENQSLKSVKFGSIKSDWLGC
B3: ST14/Matriptase (protein)
chain: GSDEKDCDCGLRSFTRQARVVGGTDADEGEWPWQVSLHALGQGHICGASLISPNWLVSAAHCYIDDRGFRYSDPTQWTAFLGLHDQSQRSAPGVQERRLKRIISHPFFNDFTFDYDIALLELEKPAEYSSMVRPICLPDASHVFPAGKAIWVTGWGHTQYGGTGALILQKGEIRVINQTTCENLLPQQITPRMMCVGFLSGGVDSCQGDSGGPLSSVEADGRIFQAGVVSWGDGCAQRNKPGVYTRLPLFRDWIKENTGV
B4: Legumain (protein)
chain: VPIDDPEDGGKHWVVIVAGSNGWYNYRHQADACHAYQIIHRNGIPDEQIVVMMYDDIAYSEDNPTPGIVINRPNGTDVYQGVPKDYTGEDVTPQNFLAVLRGDAEAVKGIGSGKVLKSGPQDHVFIYFTDHGSTGILVFPNEDLHVKDLNETIHYMYKHKMYRKMVFYIEACESGSMMNHLPDNINVYATTAANPRESSYACYYDEKRSTYLGDWYSVNWMEDSDVEDLTKETLHKQYHLVKSHTNTSHVMQYGNKTISTMKVMQFQGMKRKASSPVPLPPVTHLDLTPSPDVPLTIMKRKLMNTN

| Protein | unmasking (protease cleavage) rate (818-C1 MB) | unmasking (protease cleavage) rate (818-P1) | unmasking (protease cleavage) rate (818-C1MA) |
| --- | --- | --- | --- |
| B1 | MMP1: 818-P1>818-C1MA=818-C1 MB | MMP1: 818-P1>818-C1MA=818-C1 MB | MMP1: 818-P1>818-C1MA=818-C1 MB |
| B2 | MMP2: 818-P1>818-C1MA>818-C1 MB | MMP2: 818-P1>818-C1MA>818-C1 MB | MMP2: 818-P1>818-C1MA>818-C1 MB |
| B3 | ST14 unmaking was characterized by 818-C1MA>818-P1>818-C1 MB | ST14 unmaking was characterized by 818-C1MA>818-P1>818-C1 MB | ST14 unmaking was characterized by 818-C1MA>818-P1>818-C1 MB |
| B4 | Legumain demonstrated minimal unmasking differences | Legumain demonstrated minimal unmasking differences | Legumain demonstrated minimal unmasking differences |
